From IntAct's records for PubMed 19587294

B1: Tetraspanin-12 (Homo sapiens), O95859 (parent)
chain: MAREDSVKCLRCLLYALNLLFWLMSISVLAVSAWMRDYLNNVLTLTAETRVEEAVILTYFPVVHPVMIAVCCFLIIVGMLGYCGTVKRNLLLLAWYFGSLLVIFCVELACGVWTYEQELMVPVQWSDMVTLKARMTNYGLPRYRWLTHAWNFFQREFKCCGVVYFTDWLEMTEMDWPPDSCCVREFPGCSKQAHQEDLSDLYQEGCGKKMYSFLRGTKQLQVLRFLGISIGVTQILAMILTITLLWALYYDRREPGTDQMMSLKNDNSQHLSCPSVELLKPSLSRIFEHTSMANSFNTHFEMEEL

Variants of: B1
Details: with ada10_human ADAM10, O14672
Sequence of ada10_human ADAM10, O14672 (O14672 whole entry): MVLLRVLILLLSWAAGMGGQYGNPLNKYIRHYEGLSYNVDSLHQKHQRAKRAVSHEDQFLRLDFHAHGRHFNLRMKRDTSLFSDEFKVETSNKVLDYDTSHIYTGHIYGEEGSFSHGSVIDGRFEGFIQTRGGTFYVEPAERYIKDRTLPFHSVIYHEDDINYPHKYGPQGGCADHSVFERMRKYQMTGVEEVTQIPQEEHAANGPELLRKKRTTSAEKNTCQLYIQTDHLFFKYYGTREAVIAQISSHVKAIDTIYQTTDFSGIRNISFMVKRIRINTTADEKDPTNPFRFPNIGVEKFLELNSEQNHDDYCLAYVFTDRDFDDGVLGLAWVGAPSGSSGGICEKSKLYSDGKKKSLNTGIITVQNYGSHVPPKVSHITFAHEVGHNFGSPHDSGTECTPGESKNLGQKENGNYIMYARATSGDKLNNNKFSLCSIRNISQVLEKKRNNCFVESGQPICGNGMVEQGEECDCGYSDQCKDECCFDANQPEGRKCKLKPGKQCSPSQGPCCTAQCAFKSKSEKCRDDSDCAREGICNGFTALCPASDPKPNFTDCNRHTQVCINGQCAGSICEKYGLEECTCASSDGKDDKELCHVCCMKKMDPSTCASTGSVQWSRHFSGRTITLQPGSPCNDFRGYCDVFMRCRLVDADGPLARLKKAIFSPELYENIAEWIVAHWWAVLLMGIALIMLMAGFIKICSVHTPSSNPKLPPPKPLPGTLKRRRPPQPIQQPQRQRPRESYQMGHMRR
For MAREDSVKSLRSLLYALNLLFWLMSISVLAVSAWMRDYLNNVLTLTAETRVEEAVILTYFPVVHPVMIAVCCFLIIVGMLGYSGTVKRNLLLLAWYFGSLLVIFCVELACGVWTYEQELMVPVQWSDMVTLKARMTNYGLPRYRWLTHAWNFFQREFKCCGVVYFTDWLEMTEMDWPPDSCCVREFPGCSKQAHQEDLSDLYQEGCGKKMYSFLRGTKQLQVLRFLGISIGVTQILAMILTITLLWALYYDRREPGTDQMMSLKNDNSQHLSCPSVELLKPSLSRIFEHTSMANSFNTHFEMEEL [C9S;C12S;C83S], the “effect of a mutation on the interaction” value was “disrupting interaction strength”. MAREDSVKCLRCLLYALNLLFWLMSISVLAVSAWMRDYLNNVLTLTAETRVEEAVILTYFPVVHPVMIAVCCFLIIVGMLGYCGTVKENLLLLAWYFGSLLVIFCVELACGVWTYEQELMVPVQWSDMVTLKARMTNYGLPRYRWLTHAWNFFQREFKCCGVVYFTDWLEMTEMDWPPDSCCVREFPGCSKQAHQEDLSDLYQEGCGKKMYSFLRGTKQLQVLRFLGISIGVTQILAMILTITLLWALYYDRREPGTDQMMSLKNDNSQHLSCPSVELLKPSLSRIFEHTSMANSFNTHFEMEEL [R88E] was tested, and the “effect of a mutation on the interaction” value was “decreasing interaction strength”.
